According to publication PMC1150889 (The EMBO Journal, 2005):

Target: P22 tailspike protein gp9 (bacteriophage P22, UniProt P12528 1-667)
Assay: cryo-EM structure

B1: P22 tail accessory (head completion) protein gp4 (natural protein, bacteriophage P22, UniProt P26746 1-166, looked up)
chain: MQIKTKGDLVRAALRKLGVASDATLTDVEPQSMQDAVDDLEAMMAEWYQDGKGIITGYVFSDDENPPAEGDDHGLRSSAVSAVFHNLACRIAPDYALEATAKIIATAKYGKELLYKQTAISRAKRAPYPSRMPTGSGNSFANLNEWHYFPGEQNADSTTPHDEGNG
B1: binds.
